B1: BCAT1 promoter CpG sites, methylated (dsDNA)
DNA 1: CCGGCCCTCTCGCGGCGGAGACTCGCGACCTAGCGGATTGCATCAGCAGGAAGAC
DNA 2: GTCTTCCTGCTGATGCAATCCGCTAGGTCGCGAGTCTCCGCCGCGAGAGGGCCGG
modifications: 5-methyl-dC at sense positions 2,11,13,16,24,26,34 and antisense positions 21,29,31,39,42,44,53
B2: BCAT1 promoter CpG sites, unmethylated (dsDNA)
DNA 1: B1 DNA 1
DNA 2: B1 DNA 2
B3: HBG -53/-50 CpG sites, methylated (dsDNA)
DNA 1: TGAGGCCAGGGGCCGGCGGCTGGCTAGGGAT
DNA 2: ATCCCTAGCCAGCCGCCGGCCCCTGGCCTCA
modifications: 5-methyl-dC at positions 14 and 17 of sense and 14 and 17 of antisense
B4: HBG -53/-50 CpG sites, unmethylated (dsDNA)
DNA 1: B3 DNA 1
DNA 2: B3 DNA 2

The text below walks through data of PMC12297318, “Removal of promoter CpG methylation by epigenome editing reverses HBG silencing”.

Sequence of MBD2sc WT (MBD2 MBD-IDR-CC fused to GATAD2A CC) (Q9UBB5 other isoform, or with tags, fused parts or gaps): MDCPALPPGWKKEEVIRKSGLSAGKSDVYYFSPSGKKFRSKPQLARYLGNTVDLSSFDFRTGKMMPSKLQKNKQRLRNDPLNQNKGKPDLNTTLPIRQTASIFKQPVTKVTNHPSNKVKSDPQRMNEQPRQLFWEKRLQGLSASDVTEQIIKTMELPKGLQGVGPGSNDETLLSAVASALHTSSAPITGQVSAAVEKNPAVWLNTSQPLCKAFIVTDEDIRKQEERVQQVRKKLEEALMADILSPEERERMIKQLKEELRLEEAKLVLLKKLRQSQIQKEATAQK
Sequence of MBD2sc Y178F (Q9UBB5 other isoform, or with tags, fused parts or gaps Y178F/| Y178F Y178F): as the sequence (Q9UBB5 other isoform, or with tags, fused parts or gaps) above, with Y29F counted along it

The first data set has as its target MBD2sc WT (MBD2 MBD-IDR-CC fused to GATAD2A CC) (UniProt Q9UBB5 150-393+Q86YP4:138-178, internal_change). Briefly: EMSA; Protein at 50x molar excess over probe, 10 min at room temperature; binding buffer not stated (protein storage: 10 mM Tris-HCl pH 7.5, 150 mM NaCl, 1 mM EDTA, 1 mM PMSF, 10% glycerol); 6% native PAGE in TBE (45 mM Tris, 45 mM boric acid, 1 mM EDTA) at 4 C. The following applies: protein: recombinant; tags: pET32a vector tags (Ni-NTA purified); label: 32P 5' end of antisense strand; blunt. (A gel shift assay detects complexes by their altered migration in electrophoresis.)
Turning to B1, the binding result is “binds”.

Regarding B2, the binding result was “no binding”.

With B3, the binding result was “binds”.

In the case of B4, the binding result is reported as “no binding”.

A further data set addresses MBD2sc Y178F (UniProt Q9UBB5 150-393+Q86YP4:138-178, Y178F;internal_change). Described as above. The following applies: protein: recombinant; tags: pET32a vector tags (Ni-NTA purified); label: 32P 5' end of antisense strand; blunt.
Turning to B1, the binding result is on record as “no binding”.

Regarding B3, the binding result was “no binding”.
